# Data as given in the Human Domainome abundance scans (Beltran et al. 2025).
# ± gives the uncertainty stated by the source.
# B1: FERM and PDZ domain-containing protein 4, residues 75 to 154; numbered along this chain, Q14CM0 (parent)
# chain: APRKVEMRRDPVLGFGFVAGSEKPVVVRSVTPGGPSEGKLIPGDQIVMINDEPVSAAPRERVIDLVRSCKESILLTVIQP
# Variants of: B1
# Assay: abundance fitness (aPCA) (normalised: wild type 0, dead -1); higher = more abundant; growth selection in yeast, the domain comes from the species named
# Details: Homo sapiens
row,Variant,abundance fitness
1,A1Y,-0.14 ± 0.099
2,V5L,-0.154 ± 0.023
3,V5G,-0.997 ± 0.036
4,I63N,0.034 ± 0.039
5,I63C,-0.093 ± 0.044
6,I63E,-0.031 ± 0.041
7,I63K,-0.032 ± 0.037
8,I63P,-0.846 ± 0.088
9,I63S,0.021 ± 0.03
10,I63R,-0.033 ± 0.03
11,D10Y,-0.521 ± 0.058
12,D10R,-0.455 ± 0.031
13,D10I,-0.364 ± 0.067
14,D10W,-0.422 ± 0.041
15,D10E,-0.27 ± 0.037
16,V25S,0 ± 0.026
17,V25W,-0.078 ± 0.028
18,V25C,-0.005 ± 0.032
19,V25T,0.004 ± 0.031
20,R28M,-0.065 ± 0.029
21,R28N,0.001 ± 0.038
22,R28H,-0.08 ± 0.039
23,Q79W,-0.233 ± 0.023
24,Q79R,0.074 ± 0.018

row,Variant,abundance fitness
1,Q79K,-0.029 ± 0.027
2,Q79E,-0.017 ± 0.024
3,Q79N,-0.045 ± 0.033
4,Q79L,-0.165 ± 0.022
5,V54A,-0.271 ± 0.031
6,V54P,-0.994 ± 0.06
7,V54Y,-0.911 ± 0.058
8,V54Q,-0.647 ± 0.044
9,V54I,-0.117 ± 0.03
10,V54W,-1.07 ± 0.11
11,V54D,-0.928 ± 0.079
12,V54G,-0.993 ± 0.066
13,V54K,-1.21 ± 0.11
14,V54S,-0.627 ± 0.031
15,D64N,-0.055 ± 0.03
16,D64T,-0.109 ± 0.026
17,D64M,-0.247 ± 0.031
18,D64E,-0.011 ± 0.031
19,D51M,-0.077 ± 0.03
20,D51R,-0.069 ± 0.021
21,D51K,-0.044 ± 0.035
22,D51A,-0.087 ± 0.024
23,D51I,-0.511 ± 0.057
24,D51V,-0.385 ± 0.025

row,Variant,abundance fitness
1,D51W,-0.234 ± 0.026
2,D51L,-0.168 ± 0.024
3,P80A,-0.086 ± 0.033
4,P80I,-0.413 ± 0.11
5,P80T,-0.066 ± 0.033
6,P80V,-0.23 ± 0.039
7,R3W,-0.769 ± 0.041
8,R3M,-0.188 ± 0.03
9,R3C,-0.985 ± 0.064
10,C69M,-0.1 ± 0.028
11,C69Q,-0.034 ± 0.027
12,C69E,-0.059 ± 0.029
13,C69K,-0.089 ± 0.026
14,C69H,-0.064 ± 0.028
15,I78R,0.005 ± 0.019
16,I78W,-0.063 ± 0.022
17,I78G,-0.079 ± 0.019
18,I78L,-0.024 ± 0.02
19,P11Q,-0.131 ± 0.03
20,P11L,-0.143 ± 0.023
21,P11W,-0.405 ± 0.029
22,P11V,-0.247 ± 0.026
23,P11F,-0.329 ± 0.046
24,P11C,-0.243 ± 0.033

row,Variant,abundance fitness
1,V27E,-0.725 ± 0.043
2,V27H,-0.878 ± 0.14
3,K39Q,-0.032 ± 0.031
4,K39L,0.005 ± 0.022
5,K39P,-0.679 ± 0.04
6,K39F,-0.036 ± 0.038
7,K39W,-0.145 ± 0.025
8,K39Y,-0.068 ± 0.035
9,V47A,-0.112 ± 0.036
10,V47T,-0.01 ± 0.032
11,V47F,-0.118 ± 0.042
12,V47L,0.012 ± 0.027
13,E22A,-0.075 ± 0.024
14,E22N,-0.125 ± 0.048
15,E22H,-0.202 ± 0.051
16,N50L,-0.361 ± 0.023
17,N50T,-0.597 ± 0.034
18,N50H,-0.11 ± 0.038
19,M48W,-0.152 ± 0.032
20,M48Y,-0.083 ± 0.031
21,M48L,-0.072 ± 0.022
22,M48C,-0.003 ± 0.028
23,E52I,-0.053 ± 0.04
24,E52G,-0.321 ± 0.02

row,Variant,abundance fitness
1,E52T,-0.037 ± 0.028
2,E52W,-0.065 ± 0.023
3,E52N,-0.048 ± 0.039
4,E52P,-0.861 ± 0.058
5,E52Y,-0.045 ± 0.036
6,V62D,-0.793 ± 0.053
7,V62E,-0.86 ± 0.057
8,S29Q,-0.026 ± 0.027
9,S29G,-0.055 ± 0.021
10,S29E,0.007 ± 0.026
11,S29T,-0.029 ± 0.027
12,S29R,-0.069 ± 0.02
13,S29K,-0.059 ± 0.032
14,S29Y,-0.189 ± 0.039
15,I49R,-0.868 ± 0.031
16,I49D,-0.846 ± 0.07
17,I49H,-0.676 ± 0.069
18,I49M,-0.529 ± 0.034
19,I49F,-0.476 ± 0.042
20,P35K,-0.59 ± 0.047
21,P35C,-0.435 ± 0.05
22,G34V,-0.962 ± 0.042
23,G34H,-0.543 ± 0.077
24,G34C,-0.552 ± 0.041

row,Variant,abundance fitness
1,G34A,-0.157 ± 0.025
2,G34P,-0.92 ± 0.058
3,G34L,-0.595 ± 0.032
4,G34R,-0.954 ± 0.039
5,G34F,-0.765 ± 0.081
6,G34K,-1.02 ± 0.084
7,P53H,-0.03 ± 0.028
8,P53F,-0.124 ± 0.031
9,P53I,0.116 ± 0.029
10,P53G,-0.079 ± 0.029
11,P53L,0.004 ± 0.024
12,P53Q,-0.035 ± 0.034
13,I41F,0.043 ± 0.036
14,I41T,0.013 ± 0.028
15,I41H,0.028 ± 0.036
16,I41Q,-0.003 ± 0.028
17,I41L,0.024 ± 0.023
18,M7H,-1.01 ± 0.096
19,M7I,0.018 ± 0.033
20,M7K,-1 ± 0.073
21,M7V,-0.034 ± 0.021
22,M7Q,-0.937 ± 0.057
23,M7N,-1.07 ± 0.11
24,M7F,-0.085 ± 0.036

row,Variant,abundance fitness
1,P2G,0 ± 0.027
2,P2T,0.007 ± 0.029
3,P2N,-0.003 ± 0.048
4,P2C,-0.066 ± 0.044
5,D44Q,-0.369 ± 0.033
6,D44A,-0.221 ± 0.023
7,D44P,-0.937 ± 0.058
8,D44R,-1.01 ± 0.037
9,D44W,-0.817 ± 0.037
10,P32S,-0.032 ± 0.024
11,P32H,-0.046 ± 0.028
12,P32N,-0.058 ± 0.029
13,P32M,-0.039 ± 0.031
14,P32E,-0.037 ± 0.034
15,P32A,-0.029 ± 0.026
16,P32V,-0.051 ± 0.025
17,I73W,-0.954 ± 0.057
18,I73S,-0.462 ± 0.037
19,I73F,-0.242 ± 0.057
20,G38H,-0.045 ± 0.041
21,G38E,-0.155 ± 0.026
22,G38S,-0.124 ± 0.023
23,G38W,-0.274 ± 0.026
